The results in this text go back to patent publication US20190315873A1 (AGOMAB THERAPEUTICS, published 2019).

A word on the EC50 (read off the curve): it is the concentration giving half of the maximal effect. By EC50 is commonly meant the concentration that produces a half-maximal response.

Test [1] addresses T1, human MET ECD (human, UniProt P08581 25-932).
T1 construct: range 1-932; recombinant ECD made by standard protein engineering; also called hMET; human MET extracellular domain
Put plainly: ELISA: MET ECD immobilized (100 ng/well), mAb in human IgG1/lambda format in solution (0-40 nM), HRP anti-human Fc. An excerpt:
(§1) To this end, we investigated whether our human/mouse equivalent anti-MET antibodies cross-reacted with MET from other species, including rat (Rattus norvegicus) and cynomolgus monkey (Macaca fascicularis). […] Human and mouse MET ECD were used as controls. A restricted panel of antibodies representative of both SEMA binders (71D6, 71C3, 71D4, 71A3, 71G2) and PSI binders (76H10, 71G3) was selected. The 5D5 prior art antibody was used as control. MET ECD proteins were immobilized in solid phase (100 ng/well in a 96-well plate) and exposed to increasing concentrations (0-40 nM) of antibodies (with human constant regions) in solution. […] We conclude that the 71D6, 71C3, 71D4, 71A3, 71G2, 76H10 and 71G3 antibodies bind with similar affinity and capacity to human MET, mouse MET, rat MET and simian MET, at least as determined by ELISA.
(In an ELISA, binding on a coated surface is turned into a signal by an enzyme label.)

Test [2] has as its target monkey MET ECD (cynomolgus monkey). The test is described as above.
The target of a further test is T2, monkey MET ECD (cynomolgus monkey, UniProt A0A2K5UM36 25-932).
T2 construct: also called simian MET; cynomolgus monkey MET
Described as above.
Excerpt: as §1

Test [3] concerns the target T3, mouse MET ECD (mouse, UniProt P16056 25-931).
T3 construct: range 1-931; recombinant ECD; also called mMET; mouse MET extracellular domain
The test is described as above.
Excerpt: as §1

The target of another test is rat MET ECD (rat) (UniProt P97523). The description is as above.
For test [4], the target named is human MET ECD mutant I (mutations 6, 7, 8) (human) (UniProt P08581). Put plainly: ELISA on mutant human MET ECD.
Test [5] concerns the target human MET ECD mutant J (mutations 6, 7) (human) (UniProt P08581). Put plainly: ELISA on mutant human MET ECD.
Test [6] has as its target T1, human MET ECD. The test is described as follows: ELISA on MET ECD.
Test [7] deals with T4, human MET on A549 human lung carcinoma cells (human, UniProt P08581 25-1390).
T4 construct: whole, on cells; also called native human MET
The test is described as follows: flow cytometry, A549 cells. In general terms: A flow cytometer gives signals particle by particle.

For test [8], the target named is T5, mouse MET on MLP29 mouse liver precursor cells (mouse, UniProt P16056 25-1379).
T5 construct: whole, on cells; also called native mouse MET
The test is described as follows: flow cytometry, MLP29 cells.

Test [9] has as its target T5, mouse MET on MLP29 mouse liver …. The test is described as follows: cell-based or functional assay.
The target of test [10] is T4, human MET on A549 human lung carcinoma …. Put plainly: cell-based or functional assay.
The target of test [11] is T1, human MET ECD. The test is described as follows: ELISA, mouse-format mAb on MET ECD. As to the method: (§2) In order to directly determine whether—and to what extent—the prior art agonistic anti-MET antibodies cross-reacted with mouse MET, and to compare them to our human/mouse equivalent anti-MET antibodies, we performed an ELISA assay. Since all prior art antibodies were obtained or engineered with a mouse IgG/A format, we employed the mouse IgG/A version of 71G3, 71D6 and 71G2. Human or mouse MET ECD was immobilized in solid phase (100 ng/well in a 96-well plate) and exposed to increasing concentrations of antibodies (0-40 nM) in solution. […] Among the antibodies tested, only 71G3, 71D6 and 71G2 bound to both human and mouse MET, and they did so with indistinguishable affinities and capacities.

Test [12] deals with T3, mouse MET ECD. The test is described as follows: ELISA, mouse-format mAb on MET ECD. As to the method: as §2
Test [13] addresses T3, mouse MET ECD. The test is described as follows: ELISA on MET ECD.

Chain of rat MET ECD (rat) (P97523 25-931 limits assumed, form in doubt): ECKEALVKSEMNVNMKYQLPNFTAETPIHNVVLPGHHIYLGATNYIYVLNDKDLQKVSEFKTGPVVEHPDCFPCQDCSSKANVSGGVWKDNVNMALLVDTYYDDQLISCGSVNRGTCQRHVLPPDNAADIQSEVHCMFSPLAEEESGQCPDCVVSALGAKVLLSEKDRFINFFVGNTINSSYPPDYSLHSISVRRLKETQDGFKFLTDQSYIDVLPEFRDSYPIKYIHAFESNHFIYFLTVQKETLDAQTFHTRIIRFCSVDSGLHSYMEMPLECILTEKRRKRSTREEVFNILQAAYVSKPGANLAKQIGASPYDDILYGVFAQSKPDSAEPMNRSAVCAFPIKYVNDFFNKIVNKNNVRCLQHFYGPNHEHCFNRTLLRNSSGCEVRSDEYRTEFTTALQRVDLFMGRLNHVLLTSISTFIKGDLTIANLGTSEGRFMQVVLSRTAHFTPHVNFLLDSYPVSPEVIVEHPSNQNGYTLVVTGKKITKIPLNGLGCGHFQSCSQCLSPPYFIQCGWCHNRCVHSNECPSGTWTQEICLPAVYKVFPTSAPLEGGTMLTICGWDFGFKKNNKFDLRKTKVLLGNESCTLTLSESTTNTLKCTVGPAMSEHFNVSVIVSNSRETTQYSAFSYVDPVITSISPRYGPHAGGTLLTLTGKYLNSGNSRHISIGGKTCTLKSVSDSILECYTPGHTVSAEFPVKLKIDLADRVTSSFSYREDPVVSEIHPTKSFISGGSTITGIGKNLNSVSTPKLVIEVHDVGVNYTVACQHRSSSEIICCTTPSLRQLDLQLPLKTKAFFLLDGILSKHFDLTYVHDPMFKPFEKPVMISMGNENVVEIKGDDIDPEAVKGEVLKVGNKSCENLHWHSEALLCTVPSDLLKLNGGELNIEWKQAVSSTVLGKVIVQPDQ
T2 sequence (A0A2K5UM36 entry or part of it limits assumed): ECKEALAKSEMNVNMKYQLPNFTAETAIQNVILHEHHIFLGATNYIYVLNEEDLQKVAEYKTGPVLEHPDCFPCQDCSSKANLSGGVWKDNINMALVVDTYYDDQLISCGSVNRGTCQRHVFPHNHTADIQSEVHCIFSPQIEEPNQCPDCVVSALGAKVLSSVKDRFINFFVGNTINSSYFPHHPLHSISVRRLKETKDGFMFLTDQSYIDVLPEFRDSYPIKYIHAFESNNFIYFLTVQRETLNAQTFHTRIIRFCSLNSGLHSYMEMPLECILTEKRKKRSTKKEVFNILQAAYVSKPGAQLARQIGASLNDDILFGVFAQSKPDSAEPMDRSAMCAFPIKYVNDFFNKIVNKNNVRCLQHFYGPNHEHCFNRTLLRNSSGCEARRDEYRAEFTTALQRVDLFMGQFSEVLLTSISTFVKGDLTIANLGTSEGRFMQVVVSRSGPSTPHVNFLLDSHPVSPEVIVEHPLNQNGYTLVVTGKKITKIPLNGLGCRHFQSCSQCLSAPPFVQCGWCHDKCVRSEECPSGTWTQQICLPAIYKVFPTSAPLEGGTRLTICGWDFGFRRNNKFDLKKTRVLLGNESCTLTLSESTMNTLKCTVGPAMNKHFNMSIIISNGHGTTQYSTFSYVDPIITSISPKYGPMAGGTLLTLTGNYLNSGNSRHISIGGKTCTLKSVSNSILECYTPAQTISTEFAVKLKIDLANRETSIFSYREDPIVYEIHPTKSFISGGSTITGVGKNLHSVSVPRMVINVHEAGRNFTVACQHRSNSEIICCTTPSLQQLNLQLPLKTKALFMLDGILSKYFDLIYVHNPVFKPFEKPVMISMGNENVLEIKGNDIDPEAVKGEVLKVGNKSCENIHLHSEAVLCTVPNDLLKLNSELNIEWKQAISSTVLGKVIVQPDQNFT
Chain of monkey MET ECD (cynomolgus monkey) (A0A2K5 entry or part of it limits assumed): as the sequence (A0A2K5UM36 entry or part of it limits assumed) above

For the molecule “5D5 anti-human MET antibody, human IgG1/lambda format”, the EC50 (read off the curve) with human MET ECD [1] turned out to be 0.2 nM; in [2], 0.3 nM.

B1: 71G3 llama-human chimeric mAb (human IgG1/lambda) (antibody)
heavy: QVQLVESGGGLVQPGGSLRVSCAASGFTFSTYYMSWVRQAPGKGLEWVSDIRTDGGTYYADSVKGRFTMSRDNAKNTLYLQMNSLKPEDTALYYCARTRIFPSGYDYWGQGTQVTVSSASTKGPSVFPLAPSSKSTSGGTAALGCLVKDYFPEPVTVSWNSGALTSGVHTFPAVLQSSGLYSLSSVVTVPSSSLGTQTYICNVNHKPSNTKVDKKVEPKSCDKTHTCPPCPAPELLGGPSVFLFPPKPKDTLMISRTPEVTCVVVDVSHEDPEVKFNWYVDGVEVHNAKTKPREEQYNSTYRVVSVLTVLHQDWLNGKEYKCKVSNKALPAPIEKTISKAKGQPREPQVYTLPPSRDELTKNQVSLTCLVKGFYPSDIAVEWESNGQPENNYKTTPPVLDSDGSFFLYSKLTVDKSRWQQGNVFSCSVMHEALHNHYTSEVFVPQSRKVI
light: QAVVTQEPSLSVSPGGTVTLTCGLSSGSVTTSNYPGWFQQTPGQAPRTLIYNTNSRHSGVPSRFSGSISGNKAALTIMGAQPEDEADYYCSLYPGSTTVFGGGTHLTVLQPKAAPSVTLFPPSSEELQANKATLVCLISDFYPGAVTVAWKADSSPVKAGVETTTPSKQSNNKYAASSYLSLTPEQWKSHRSYSCQVTHEGSTVEKTVAPTECS
On to B1, for which the half-maximal effective concentration (EC50 (read off the curve)) is ~0.04 nM with monkey MET ECD, ~0.08 nM in the test with human MET ECD [1], ~0.04 nM with mouse MET ECD [3] and 0.1 nM with rat MET ECD (rat). Also, the % binding (EMAX) vs WT MET ECD in test [4] came out at 100%; in test [5], 91.2%.

B2: 76H10 llama-human chimeric mAb (human IgG1/lambda) (antibody, V domains shown)
VH: QLQLVESGGGLVQPGGSLRVSCTASGFTFNTYYMTWVRQAPGKGLEWVSDINSGGGTYYADSVKGRFTISRDNAKNTLYLQMNSLKPEDTALYYCVRVRIWPVGYDYWGQGTQVTVSS
VL: QAVVTQEPSLSVSPGGTVTLTCGLSSGSVTTSNYPGWFQQTPGQAPRTLIYNTNNRHSGVPSRFSGSISGNKAALTITGAQPEDEADYYCSLYTGSYTTVFGGGTHLTVLQ
As to B2, the “EC50 (read off the curve)” value in the test with monkey MET ECD is ~0.04 nM; in the test with human MET ECD [1], ~0.1 nM; with mouse MET ECD [3], ~0.03 nM; in the test with rat MET ECD (rat), 0.1 nM. Further, the % binding (EMAX) vs WT MET ECD in test [4] is 100%; in [5] it was 89%.

B3: 71D6 llama-mouse chimeric mAb (mouse IgG1/lambda) (antibody)
heavy: ELQLVESGGGLVQPGGSLRLSCAASGFTFSSYGMSWVRQAPGKGLEWVSAINSYGGSTSYADSVKGRFTISRDNAKNTLYLQMNSLKPEDTAVYYCAKEVRADLSRYNDYESYDYWGQGTQVTVSSAKTTPPSVYPLAPGSAAQTNSMVTLGCLVKGYFPEPVTVTWNSGSLSSGVHTFPAVLQSDLYTLSSSVTVPSSPRPSETVTCNVAHPASSTKVDKKIVPRDCGCKPCICTVPEVSSVFIFPPKPKDVLTITLTPKVTCVVVDISKDDPEVQFSWFVDDVEVHTAQTQPREEQFNSTFRSVSELPIMHQDWLNGKEFKCRVNSAAFPAPIEKTISKTKGRPKAPQVYTIPPPKEQMAKDKVSLTCMITDFFPEDITVEWQWNGQPAENYKNTQPIMNTNGSYFVYSKLNVQKSNWEAGNTFTCSVLHEGLHNHHTEKSLSHSPGK
light: QPVLNQPSALSVTLGQTAKITCQGGSLGARYAHWYQQKPGQAPVLVIYDDDSRPSGIPERFSGSSSGGTATLTISGAQAEDEGDYYCQSADSSGSVFGGGTHLTVLGQPKSSPSVTLFPPSSEELETNKATLVCTITDFYPGVVTVDWKVDGTPVTQGMETTQPSKQSNNKYMASSYLTLTARAWERHSSYSCQVTHEGHTVEKSLSRADCS
notes: also called 71D6 (mouse format)
As to B3, the figures for the EC50 with human MET ECD [6], with human MET ECD [11] and with mouse MET ECD [12] were 0.038 nM, 0.042 nM and 0.044 nM, respectively. The EMAX in test [7] worked out at 122 % CTR; in [8], 119 % CTR; in the test with human MET ECD [11], 2.69 OD450; in the test with mouse MET ECD [12], 2.94 OD450. Besides, the “MLP29 MET act. EMAX” value in [9] was determined as 103 % HGF. Besides, the “A549 MET act. EMAX” value in test [10] was 98.3 % HGF.

B4: 71G3 llama-mouse chimeric mAb (mouse IgG1/lambda) (antibody)
heavy: QVQLVESGGGLVQPGGSLRVSCAASGFTFSTYYMSWVRQAPGKGLEWVSDIRTDGGTYYADSVKGRFTMSRDNAKNTLYLQMNSLKPEDTALYYCARTRIFPSGYDYWGQGTQVTVSSAKTTPPSVYPLAPGSAAQTNSMVTLGCLVKGYFPEPVTVTWNSGSLSSGVHTFPAVLQSDLYTLSSSVTVPSSPRPSETVTCNVAHPASSTKVDKKIVPRDCGCKPCICTVPEVSSVFIFPPKPKDVLTITLTPKVTCVVVDISKDDPEVQFSWFVDDVEVHTAQTQPREEQFNSTFRSVSELPIMHQDWLNGKEFKCRVNSAAFPAPIEKTISKTKGRPKAPQVYTIPPPKEQMAKDKVSLTCMITDFFPEDITVEWQWNGQPAENYKNTQPIMNTNGSYFVYSKLNVQKSNWEAGNTFTCSVLHEGLHNHHTEKSLSHSPGK
light: QAVVTQEPSLSVSPGGTVTLTCGLSSGSVTTSNYPGWFQQTPGQAPRTLIYNTNSRHSGVPSRFSGSISGNKAALTIMGAQPEDEADYYCSLYPGSTTVFGGGTHLTVLGQPKSSPSVTLFPPSSEELETNKATLVCTITDFYPGVVTVDWKVDGTPVTQGMETTQPSKQSNNKYMASSYLTLTARAWERHSSYSCQVTHEGHTVEKSLSRADCS
notes: also called 71G3 (mouse format)
In the case of B4, the concentration giving a half-maximal response (EC50) in the test with mouse MET ECD [13] was 0.062 nM; with human MET ECD [11] it was 0.058 nM. The EMAX in test [7] was determined as 116 % CTR; in test [8], 110 % CTR; in the test with human MET ECD [11], 3.11 OD450; with mouse MET ECD [12], 3.06 OD450. The “MLP29 MET act. EMAX” value in [9] stood at 91.9 % HGF. Also, the “A549 MET act. EMAX” value in test [10] stood at 90.8 % HGF.

B5: 71G2 llama-mouse chimeric mAb (mouse IgG1/lambda) (antibody)
heavy: EVQLQESGGGLVQPGGSLRLSCAASGFTFSIYDMSWVRQAPGKGLEWVSTINSDGSSTSYVDSVKGRFTISRDNAKNTLYLQMNSLKPEDTAVYYCAKVYGSTWDVGPMGYGMDYWGKGTLVTVSSAKTTPPSVYPLAPGSAAQTNSMVTLGCLVKGYFPEPVTVTWNSGSLSSGVHTFPAVLQSDLYTLSSSVTVPSSPRPSETVTCNVAHPASSTKVDKKIVPRDCGCKPCICTVPEVSSVFIFPPKPKDVLTITLTPKVTCVVVDISKDDPEVQFSWFVDDVEVHTAQTQPREEQFNSTFRSVSELPIMHQDWLNGKEFKCRVNSAAFPAPIEKTISKTKGRPKAPQVYTIPPPKEQMAKDKVSLTCMITDFFPEDITVEWQWNGQPAENYKNTQPIMNTNGSYFVYSKLNVQKSNWEAGNTFTCSVLHEGLHNHHTEKSLSHSPGK
light: SSALTQPSALSVSLGQTARITCQGGSLGSSYAHWYQQKPGQAPVLVIYGDDSRPSGIPERFSGSSSGGTATLTISGAQAEDEDDYYCQSTDSSGNTVFGGGTRLTVLGQPKSSPSVTLFPPSSEELETNKATLVCTITDFYPGVVTVDWKVDGTPVTQGMETTQPSKQSNNKYMASSYLTLTARAWERHSSYSCQVTHEGHTVEKSLSRADCS
notes: also called 71G2 (mouse format)
With B5, the EC50 in the test with human MET ECD [6] amounted to 0.113 nM; in the test with mouse MET ECD [13] it was 0.109 nM; with human MET ECD [11], 0.098 nM; with mouse MET ECD [12], 0.091 nM. Also, the EMAX in test [7] is 142 % CTR; in test [8] it was 128 % CTR; in the test with human MET ECD [11] it was 2.86 OD450; with mouse MET ECD [12], 2.96 OD450. In test [9], the “MLP29 MET act. EMAX” value came to 102 % HGF. Also, the “A549 MET act. EMAX” value in test [10] was found to be 102 % HGF.
